Read-outs that look alike come from different tables or passages of the source.
What was measured:
[1] = target: T1, P2-AA-1HGe-Q; test: two-hybrid library CCmax; settings: mean of both orientations;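 also: natural log of median RNA to DNA barcode read ratio; higher means stronger binding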
T1 chain: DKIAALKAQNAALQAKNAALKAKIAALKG

[2] = target: T2, P2-AA; test: two-hybrid library CCmax; settings: mean of both orientations;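 also: natural log of median RNA to DNA barcode read ratio; higher means stronger binding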
T2 chain: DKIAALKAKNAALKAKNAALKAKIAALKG

[3] = target: T3, P2-AA-1HGe-A; test: two-hybrid library CCmax; settings: mean of both orientations;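 also: natural log of median RNA to DNA barcode read ratio; higher means stronger binding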
T3 chain: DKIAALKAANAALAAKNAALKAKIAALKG

[4] = target: T4, P2-AA-1HGe-M; test: two-hybrid library CCmax; settings: mean of both orientations;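 also: natural log of median RNA to DNA barcode read ratio; higher means stronger binding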
T4 chain: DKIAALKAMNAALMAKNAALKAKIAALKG

[5] = target: T5, P2-AA-1HGe-T; test: two-hybrid library CCmax;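 also: natural log of median RNA to DNA barcode read ratio; higher means stronger binding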
T5 chain: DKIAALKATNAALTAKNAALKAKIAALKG

[6] = target: T6, P2-AA-1HGe-D; test: two-hybrid library CCmax; settings: mean of both orientations;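 also: natural log of median RNA to DNA barcode read ratio; higher means stronger binding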
T6 chain: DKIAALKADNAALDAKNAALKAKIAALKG

[7] = target: T7, 4H906-bA; test: two-hybrid library CCNG1
T7 chain: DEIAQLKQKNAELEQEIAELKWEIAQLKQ

[8] = target: T8, 4H3613-bA; test: two-hybrid library CCNG1
T8 chain: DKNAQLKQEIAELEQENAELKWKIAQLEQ

[9] = target: T9, 4H3638-bA; test: two-hybrid library CCNG1
T9 chain: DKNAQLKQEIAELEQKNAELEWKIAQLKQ

[10] = target: T10, 4H3497-bA; test: two-hybrid library CCNG1
T10 chain: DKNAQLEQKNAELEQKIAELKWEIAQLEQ

[11] = target: T11, 4H3628-bA; test: two-hybrid library CCNG1
T11 chain: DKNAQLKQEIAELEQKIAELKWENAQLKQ

[12] = target: T12, 4H3462-bA; test: two-hybrid library CCNG1
T12 chain: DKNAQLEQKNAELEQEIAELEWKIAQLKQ

[13] = target: T13, 4H626-bA; test: two-hybrid library CCNG1
T13 chain: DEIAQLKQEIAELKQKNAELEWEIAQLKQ

[14] = target: T14, 4H591-bA; test: two-hybrid library CCNG1
T14 chain: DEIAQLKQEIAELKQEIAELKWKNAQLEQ

[15] = target: T15, 4H3926-bA; test: two-hybrid library CCNG1
T15 chain: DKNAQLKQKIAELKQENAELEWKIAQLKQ

[16] = target: T16, O6; test: two-hybrid library CCNG1
T16 chain: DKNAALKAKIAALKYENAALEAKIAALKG

[17] = target: T17, O9; test: two-hybrid library CCNG1
T17 chain: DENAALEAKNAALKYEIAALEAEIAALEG

[18] = target: T18, O5; test: two-hybrid library CCNG1
T18 chain: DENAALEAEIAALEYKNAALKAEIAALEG

[19] = target: T19, O8; test: two-hybrid library CCNG1
T19 chain: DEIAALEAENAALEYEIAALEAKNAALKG

[20] = target: T20, O4; test: two-hybrid library CCNG1
T20 chain: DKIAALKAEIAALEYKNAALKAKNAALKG

[21] = target: T21, O7; test: two-hybrid library CCNG1
T21 chain: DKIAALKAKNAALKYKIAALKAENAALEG

[22] = target: T22, 4H2614-AA; test: two-hybrid library CCmax
T22 chain: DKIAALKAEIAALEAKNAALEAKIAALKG

[23] = target: T23, 4H55-AA; test: two-hybrid library CCmax; settings: mean of both orientations
T23 chain: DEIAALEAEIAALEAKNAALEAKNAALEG

[24] = target: T24, 4H662-AA; test: two-hybrid library CCmax; settings: mean of both orientations
T24 chain: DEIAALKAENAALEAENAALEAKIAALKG

[25] = target: T25, 4H2935-AA; test: two-hybrid library CCmax; settings: mean of both orientations
T25 chain: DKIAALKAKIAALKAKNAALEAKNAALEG

[26] = target: T26, 4H369-AA; test: two-hybrid library CCmax; settings: mean of both orientations
T26 chain: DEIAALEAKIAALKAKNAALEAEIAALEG

[27] = target: T27, 4H3625-AA; test: two-hybrid library CCmax; settings: mean of both orientations
T27 chain: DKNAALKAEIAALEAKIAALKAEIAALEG

[28] = target: T28, 4H327-AA; test: two-hybrid library CCmax; settings: mean of both orientations
T28 chain: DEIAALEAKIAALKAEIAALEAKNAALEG

[29] = target: T29, 4H4033-AA; test: two-hybrid library CCmax; settings: mean of both orientations
T29 chain: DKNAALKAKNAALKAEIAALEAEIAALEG

[30] = target: T30, 4H2726-AA; test: two-hybrid library CCmax; settings: mean of both orientations
T30 chain: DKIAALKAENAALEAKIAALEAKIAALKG

[31] = target: T31, 4H3922-AA; test: two-hybrid library CCmax; settings: mean of both orientations
T31 chain: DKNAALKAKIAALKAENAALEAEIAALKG

[32] = target: T32, 4H3664-AA; test: two-hybrid library CCmax; settings: mean of both orientations
T32 chain: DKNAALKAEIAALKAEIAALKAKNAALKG

[33] = target: T33, 4H3605-AA; test: two-hybrid library CCmax; settings: mean of both orientations
T33 chain: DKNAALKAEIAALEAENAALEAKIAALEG

[34] = target: T34, 4H481-AA; test: two-hybrid library CCmax; settings: mean of both orientations
T34 chain: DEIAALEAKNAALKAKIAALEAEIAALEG

[35] = target: T35, 4H971-AA; test: two-hybrid library CCmax; settings: mean of both orientations
T35 chain: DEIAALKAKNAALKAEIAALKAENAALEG

[36] = target: T36, 4H2283-AA; test: two-hybrid library CCmax; settings: mean of both orientations
T36 chain: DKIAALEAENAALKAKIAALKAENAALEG

[37] = target: T37, 4H2713-AA; test: two-hybrid library CCmax; settings: mean of both orientations
T37 chain: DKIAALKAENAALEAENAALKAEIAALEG

[38] = target: T38, 4H2948-AA; test: two-hybrid library CCmax; settings: mean of both orientations
T38 chain: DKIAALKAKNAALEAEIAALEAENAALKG

[39] = target: T39, 4H3666-AA; test: two-hybrid library CCmax; settings: mean of both orientations
T39 chain: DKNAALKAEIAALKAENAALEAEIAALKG

[40] = target: T40, 4H3920-AA; test: two-hybrid library CCmax; settings: mean of both orientations
T40 chain: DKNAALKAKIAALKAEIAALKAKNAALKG

[41] = target: T41, 4H3121-AA; test: two-hybrid library CCmax; settings: mean of both orientations
T41 chain: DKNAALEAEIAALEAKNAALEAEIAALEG

[42] = target: T42, 4H3417-AA; test: two-hybrid library CCmax; settings: mean of both orientations
T42 chain: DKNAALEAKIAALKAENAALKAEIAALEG

[43] = target: T43, 4H675-AA; test: two-hybrid library CCmax; settings: mean of both orientations
T43 chain: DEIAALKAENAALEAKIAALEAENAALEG

[44] = target: T44, 4H391-AA; test: two-hybrid library CCmax; settings: mean of both orientations
T44 chain: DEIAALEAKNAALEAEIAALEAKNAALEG

[45] = target: T45, 4H3591-AA; test: two-hybrid library CCmax; settings: mean of both orientations
T45 chain: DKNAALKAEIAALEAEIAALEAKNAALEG

[46] = target: T46, 4H3102-AA; test: two-hybrid library CCmax; settings: mean of both orientations
T46 chain: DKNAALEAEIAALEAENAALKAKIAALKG

[47] = target: T47, 4H2991-AA; test: two-hybrid library CCmax; settings: mean of both orientations
T47 chain: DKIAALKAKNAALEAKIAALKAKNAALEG

[48] = target: T48, 4H2742-AA; test: two-hybrid library CCmax; settings: mean of both orientations
T48 chain: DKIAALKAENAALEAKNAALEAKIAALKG

[49] = target: T49, 4H428-AA; test: two-hybrid library CCmax; settings: mean of both orientations
T49 chain: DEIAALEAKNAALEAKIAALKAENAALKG

[50] = target: T50, 4H3029-AA; test: two-hybrid library CCmax; settings: mean of both orientations
T50 chain: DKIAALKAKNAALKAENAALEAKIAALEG

[51] = target: T51, 4H3446-AA; test: two-hybrid library CCmax; settings: mean of both orientations
T51 chain: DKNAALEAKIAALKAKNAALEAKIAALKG

[52] = target: T52, 4H3939-AA; test: two-hybrid library CCmax; settings: mean of both orientations
T52 chain: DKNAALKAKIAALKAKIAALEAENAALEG

[53] = target: T53, 4H2248-AA; test: two-hybrid library CCmax
T53 chain: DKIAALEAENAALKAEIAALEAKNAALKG

[54] = target: T54, 4H3628-AA; test: two-hybrid library CCmax; settings: mean of both orientations
T54 chain: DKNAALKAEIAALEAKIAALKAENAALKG

[55] = target: T55, 4H3709-AA; test: two-hybrid library CCmax; settings: mean of both orientations
T55 chain: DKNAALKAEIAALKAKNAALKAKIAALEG

[56] = target: T56, 4H497-AA; test: two-hybrid library CCmax; settings: mean of both orientations
T56 chain: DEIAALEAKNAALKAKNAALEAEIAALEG

[57] = target: T57, 4H3066-AA; test: two-hybrid library CCmax; settings: mean of both orientations
T57 chain: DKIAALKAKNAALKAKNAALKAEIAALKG

[58] = target: T58, 4H656-AA; test: two-hybrid library CCmax; settings: mean of both orientations
T58 chain: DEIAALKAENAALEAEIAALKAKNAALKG

[59] = target: T59, 4H478-AA; test: two-hybrid library CCmax; settings: mean of both orientations
T59 chain: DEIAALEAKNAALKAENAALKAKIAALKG

DEIAALEAQNAALQAENAALEAEIAALEG [P1-AA-1HGe-Q]
interaction score [1]: 2.11 | interaction score [2]: 1.75 | interaction score [3]: 2.14 | interaction score [4]: 2.05 | interaction score ([5]; mean of both orientations): 2.21 | interaction score [6]: 1.67

DEIAALEADNAALDAENAALEAEIAALEG [P1-AA-1HGe-D]
interaction score [1]: 2.03 | interaction score [2]: 1.91 | interaction score [3]: 1.58 | interaction score [4]: 1.74 | interaction score ([5]; mean of both orientations): 1.92 | interaction score [6]: 0.303

DEIAALEARNAALRAENAALEAEIAALEG [P1-AA-1HGe-R]
interaction score [1]: 2.26 | interaction score [2]: 1.49 | interaction score [3]: 1.97 | interaction score [4]: 1.7 | interaction score ([5]; mean of both orientations): 2.2 | interaction score [6]: 1.67

DEIAALEASNAALSAENAALEAEIAALEG [P1-AA-1HGe-S]
interaction score [1]: 2.06 | interaction score [2]: 2.03 | interaction score [3]: 1.81 | interaction score [4]: 2.01 | interaction score [5]: 2.01 | interaction score [6]: 1.63

DEIAALEATNAALTAENAALEAEIAALEG [P1-AA-1HGe-T]
interaction score [1]: 2.05 | interaction score [2]: 2.07 | interaction score [3]: 2.18 | interaction score [4]: 1.53 | interaction score ([5]; mean of both orientations): 2 | interaction score [6]: 1.17

DKNAQLEQKNAELEQEIAELEWKIAQLKQ [4H3462-bA]
interaction score [7]: -1.46 | interaction score [8]: -0.827 | interaction score [9]: -1.05 | interaction score [10]: 0.917 | interaction score [11]: -1.42 | interaction score [12]: 0.257 | interaction score [13]: -0.693 | interaction score [14]: 0.153 | interaction score [15]: 0.717

DKIAALKAEIAALEYKNAALKAKNAALKG [O4]
interaction score [16]: -2.27 | interaction score [17]: -1.88 | interaction score [18]: -2.52 | interaction score [19]: -2.07 | interaction score [20]: -2.15 | interaction score [21]: -2.43

DKIAALKAEIAALEAKNAALEAKIAALKG [4H2614-AA]
interaction score [22]: 1.46 | interaction score [23]: -0.185 | interaction score [24]: -1.17 | interaction score [25]: 0.084 | interaction score [26]: 2.41 | interaction score [27]: 0.314 | interaction score [28]: -0.0398 | interaction score [29]: -1.43 | interaction score [30]: -0.336 | interaction score [31]: 0.659 | interaction score [32]: -1.11 | interaction score [33]: -0.49 | interaction score [34]: 1.06

DKIAALEAENAALKAEIAALEAKNAALKG [4H2248-AA]
interaction score [35]: 1.05 | interaction score [36]: 2.34 | interaction score [37]: -1.2 | interaction score [38]: -0.353 | interaction score [39]: -0.505 | interaction score [40]: -1.51 | interaction score [41]: -1.69 | interaction score [42]: 0.548 | interaction score [43]: 0.827 | interaction score [44]: -1.16 | interaction score [45]: -1.39 | interaction score [46]: 2.22 | interaction score [47]: -0.183 | interaction score [48]: -1.88 | interaction score [49]: -0.478 | interaction score [50]: -1.79 | interaction score [51]: 0.189 | interaction score [52]: -1.4 | interaction score [53]: 2.16 | interaction score [54]: -1.59 | interaction score [55]: -1.23 | interaction score [56]: -2.18 | interaction score [57]: -1.25 | interaction score [58]: -0.26 | interaction score [59]: 0.536

— article PMC10397247
